Assay results from patent publication CN109929036A (TAIZHOU MAIBO TAIKE PHARMACEUTICAL CO LTD, dated 2019).

What was measured:
[1] = target: T1, 表面表达人PD-1的基因重组293T细胞上的人PD-1 (human, UniProt Q15116 25-288); experiment: flow cytometry competition; displacement of FITC-PD-L1 from PD-1-expressing 293T cells
T1 construct: whole, on cells; also called 2H-3细胞表面PD-1; 表面表达PD-1的293T细胞

[2] = target: CHO细胞重组表达的人PD-1胞外段全长蛋白(第20-170位氨基酸) (human) (UniProt Q15116); experiment: SPR, BIACORE3000, 5L12 coupled to the chip
[3] = target: T2, 化学合成的人PD-1第75-82位氨基酸(序列QTDKLAAF) (human); experiment: SPR, BIACORE3000, 5L12 coupled to the chip
T2 peptide: QTDKLAAF

T1 sequence (Q15116 25-288): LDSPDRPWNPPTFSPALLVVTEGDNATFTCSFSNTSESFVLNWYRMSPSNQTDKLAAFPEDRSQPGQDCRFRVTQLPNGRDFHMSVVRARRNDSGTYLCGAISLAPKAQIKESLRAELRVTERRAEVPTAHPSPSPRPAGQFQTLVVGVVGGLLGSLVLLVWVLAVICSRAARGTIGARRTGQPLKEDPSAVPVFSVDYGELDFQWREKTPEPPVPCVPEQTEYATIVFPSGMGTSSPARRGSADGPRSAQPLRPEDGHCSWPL

B1: 全人源抗PD-1单克隆抗体5L12 (antibody, human IgG4 S228P, kappa, V domains shown)
VH: EVQLVESGGGLVQPGGSLRLSCAASGYTFTSYWMLWVRQAPGKGLEWVSYIYPSTGYTEYSENFKDRFTISRDNSKNTLYLQMNSLRAEDTAVYYCARGVRYYFDYWGQGTLVTVSS
VL: DIQMTQSPSSLSASVGDRVTITCKSSQSLLDSSTRKNYLAWYQQKPGKAPKLLIYWASTRESGVPSRFSGSGSGTDFTLTISSLQPEDFATYYCKQSYNLWTFGQGTKVEIKR
notes: also called FITC-5L12
IC50 [1]: ~0.03 µg/mL
IC50 ratio against Nivolumab [1]: 0.05 fold of the IC50 of Nivolumab
IC50 ratio against Pembrolizumab [1]: 0.5 fold of the IC50 of Pembrolizumab
Kd [2]: 0.01 nM
Kd [3]: ~0.01 nM
